Consider one substance from patent publication US20070269861A1.

The target of assay [1] is Crotalus durissus terrificus (C.d.t.) venom. The assay can be described thus: ELISA, venom-coated wells; dilution 1:5. Background: In an ELISA, binding on a coated surface is turned into a signal by an enzyme label.
Assay [2] shares this target. Nature of the assay: ELISA, venom-coated wells; dilution 1:25.
For assay [3] the target is unchanged. Nature of the assay: ELISA, venom-coated wells; dilution 1:125.
Assay [4] has the same target. The assay can be described thus: ELISA, venom-coated wells; dilution 1:625.
For assay [5] the target is unchanged. Nature of the assay: ELISA, venom-coated wells; dilution 1:3125.
Assay [6] has the same target. Nature of the assay: ELISA, venom-coated wells; dilution 1:62,500.
The target is the same in assay [7]. The assay can be described thus: ELISA, venom-coated wells; dilution 1:312,500.
For assay [8] the target is unchanged. Nature of the assay: ELISA, venom-coated wells (5 µg/ml); undiluted.
Assay [9] shares this target. The assay can be described thus: ELISA, venom-coated wells (5 µg/ml); dilution 1:5.
Assay [10] has the same target. Nature of the assay: ELISA, venom-coated wells (5 µg/ml); dilution 1:25.
Assay [11] has the same target. Nature of the assay: ELISA, venom-coated wells (5 µg/ml); dilution 1:125.
The target is the same in assay [12]. The assay can be described thus: ELISA, venom-coated wells (5 µg/ml); dilution 1:625.
Assay [13] has the same target. The assay can be described thus: ELISA, venom-coated wells (5 µg/ml); dilution 1:3125.

With “preimmune IgY (PEG preparation from eggs of unimmunized hens) (antibody)”, the absorbance 412 nm was less than 0 absorbance in assay [1]; 0.016 absorbance in [2]; less than 0 absorbance in assay [3]; less than 0 absorbance in [4]; less than 0 absorbance in assay [5]; 0.001 absorbance in assay [6]. Further, the absorbance 412 nm in assay [7] was 0.01 absorbance; in assay [8] it was 0.003 absorbance; in assay [9], less than 0 absorbance; in [10], 0 absorbance; in assay [11], 0.003 absorbance; in [12] it was 0 absorbance. In assay [13], this substance had an absorbance 412 nm of 0.002 absorbance.
